Experimental data as given in the DeepSol protein solubility set.

Test: soluble on expression in E. coli; label from the status in PepcDB or PDB records

| Sequence | soluble on expression in E. coli |
| --- | --- |
| MGSDKIHHHHHHMNYIKRSLERKFLHMSKFFKAVLVTGARQVGKTTMLKHLAEGQNRTYVTLDNLMARNLAKTDPVLFFQTYKPPVLIDEVQYAPELFSQIKILCDSSEEPGLIWLTGSQQFEMMKNVRETLAGRIGIMTLYSLSKNEKDGIEFENSLDFSPECLFARQRIAEKNDVLKVFEHIWRGGMPQVLHADAEQRQEYYNAYVNTYLMRDVAELGGITDSLRFAKFLTACAALTSEQVNYKNLSEAADISQPTAKEWLRLLEGLGIVYLLQPYANNAFKRLTKAPKLYFCDTGLCAHLSMWLTPETLMNGAASGHYFENHVVAEMLKSYAYSASKAVITYFRDSNAKEIDIIVEANNQLHPLEIKKSASPNSREINKYTILDKSSIKRGHGGILCLCEEVVPIDEQNCFIPCNLI | not soluble |
| MQDNSRYTHFLTQHYDAKPQGRDDRYCESIMRRRGLTSDRCKPINTFIHGNKRSIKAICENKNGNPHRENLRISKSSFQVTTCKLHGGSPWPPCQYRATAGFRNVVVACENGLPVHLDQSIFRRP | soluble |
| MTDRYIAFANSPVGRRLVGAVGLPSPLRLERWQAGRVRPVDGPLVIGGSGALAEAVLPFAGKLTDAVFAAVDGQFELPRWTAEHSPRAKAVLFDASGLTRFEQLVALRDFFQPVLKGLDKCPKVVVLGRPPESLKDPVTASVQRSLEGFTRSLGKEIRRGGNVQLLYVGKGAEDQLEGALRFFLSPKSAYVSGQVIRLAANSAQVHDWSKPLAGQRALVTGAARGIGAAIAETLARDGAEVVLLDVPPAREALEGLAARLGGRAVALDICAADAGQQLVEALPEGVDIVVHNAGITRDKTLAKMSSDFWNSVINVNLNAPQVLTQALLDGGKLHDNGRVVLLASISGIAGNLGQSNYAVSKAGLIGLAQAWAPALGKRGITINAVAPGFIETQMTAAIPLTIREAGRRMNSMSQGGLPQDVAETVAWFAQPSSGAVSGQVL | not soluble |
| GSHMVPISFVFNRFPRMVRDLAKKMNKEVNFIMRGEDTELDRTFVEEIGEPLLHLLRNAIDHGIEPKEERIAKGKPPIGTLILSARHEGNNVVIEVEDDGRGIDKEKIIRKAIEKGLIDESKAATLSDQEILNFLFVPGFSTKEKVSEVSGRGVGMDVVKNVVESLNGSISIESEKDKGTKVTIRLPLTLAIIQALLVKVNNLVYAIPIANIDTILSISKEDIQRVQDRDVIVIRGEVIPVYRLWEVLQIEHKEELEEMEAVIVRVGNRKYGIVVDDLLGQDDIVIKSLGKVFSEVKEFSGAAILGDGSIALIINVSGIV | soluble |
| MGSDKIHHHHHHLRPDLEHYYLIDQYLENKLTGQELAAFEQQLMQDKAFANEVQEQRMLNNLILEAELKSVRSQIEKDLLNMQTPSFFRMHWQWISAGALCLLGSLFFMLPGKKDIQTVSLQKSAASHIEKENNPDIAPVENTTQKTATALNLPAKTDISDIVTRTQATDTAQAGSLVIAGTPVIVPVNTKTEPALETTAGEENKKTDCSLTKITSVITTENSCMNTETGSIHIDKISGGIAPYTYTLNNKKIKEKNVSALGAGIYEVKISDRNGCLSEQKISILEKNCTPAIQQGTKFNINPMLGETCSIAFDTDKKGSLTIYNRSGKIVYRVTNPSLDYIEWNGSDGTGALAEAGLYVYLIDYTDGTKVTGEVTITR | not soluble |
| MGSDKIHHHHHHMNIHVKECGDLEAPLLVFLHGGGVSGWMWSNQVDYFHHYHCIVPDLPHHGLSGRETSFTILNSAEALIRLIEKKAQGRDVIVIGFSLGAQILLQMISINPRLITKAIVNSALVRPIPIPEKLLELSVKSTFPLIKSRWFSRLQAKTLYIDDDLFETYYRESCQMTQDSLTQILKENVSFRLPENVHEISTRILTTVGAKEKRIMKTSATMITHAHPNSTGIIIPSVGHGIPLAKPDQFNQLVDQWLKEERLPHDVGLIEK | not soluble |
| MGHHHHHHENLYFQSHLYFQSHERLSEKKIKNLLTSKQQRQQYEIKQRSMLRHLAELRRHSRFRRLCTKPASSSMPASTSSVDRRTTRRSTSQTSLSPSNSSGYGSVFGCEEHDVDKIPSLNGFAKLKRRRSSCVGAPTPNSKRSKNNMGVIAKRPPKGEYVVERIECVEMD | not soluble |
| PNISDIIEQYLKQVLNMSDQDIVEIKRSEIANKFRCVPSQINYVINTRFTLERGYIVESKRGGGGYIRIMKVKTKSEAQLIDQLLELIDHRISQSSAEDVIKRLMEEKVISEREAKMMLSVMDRSVLYIDLPERDELRARMLKAMLTSLKYKLEI | soluble |
| MPFENAPHLVFWEVTKACPLTCKHCRANAIDKPLPGELNTEESRKLLEDIARFGKVVIVFTGGDPLSRSDIFELMEYAKSLGLVVSIAPSPSHRLDDETMKIISNYARYMSISLDGATSQTHDWLRGLGSYKYALRGIELGLKYGIQVQVNTLVWKKSYSELPFVVKLLKEMGVKIWEVFFLIPVGRGTTELDIPRDKYKDVIDFLVEATRYDLIVRTVEAPFFRRAKLEYTPATTNDNELVSTLRELLGEPVKEADKSILPTRDGAGVIFIGYNGDVYPSGFLPLYLGNVKKESLVDIYRKSEVLKKIKDSRFEGKCGICKYNNICGGSRARAFAVYNNPFAEDPMCPY | not soluble |
| MIIAREKRRNNIAEYVLYMWQIEDLIRANELDMQRLRATVIAQYRQDTETTAEIDRWYAELVEMMLTEGVREQGHINIVRIAIMQMEEIHSRLMADPKEMIYQGLYYQVLPAIVQLRAKSAGSNTGEIETCLTAIYGLLTLRLQKKEVSEETLASIKQMSTLLSVLSEKFAAREEGTDEALL | not soluble |
| MIQARSRRPLSCSLRSSSQNPIATTFLTGGKMDRIVRQILVKLLGGERSVYELIYYQDASLREFFELLNSLRDEGLIEVESGKVRITEKGREVAEKERLKFCGDVECECCEGTGLSINPYFKEILQKYSEIAKDRPETIEVYDQGFISLEGVIRRVEFVYDRGDLNGRIFVVGDDDLFGIAASLTGMPEKVAVVDIDERLINFINRVAEEYSLNVEAFVYDVQQAFPDELKRKFDVFVTDPVETIPGLKLFLSRGVSTLKGVGGAGYFGITTLEASRRKWYEIQRMIHDMGFIITDLRRRFNVYPEDEKNFFRFQEKLPIVRHLQAKVDFNWYNSTLFRIEAVKEPKPIVEGEMIIDEKVYKDDESWATPY | not soluble |
| MQQQILERIEDCYQQAEAYFKRAFPRPTTQFTLRGRSAGTAHLQQNRLRFNPVLLRENSEAFLAEVVPHEISHLLCFQIFGKTKPHGREWQSIMLKLFKISPNTTHNFDTQSVKGKDVEYRCACGPIRLGIRRHNKVLRGETRYLCKRCHTHLTLALEHHHHHH | not soluble |
| MTEVIGIKFEENGAVEYVVPDKNYTKGDFVVVLEKKDKRLAQVVMENTVFPEVSLPVDLNRVEGLASKRDFARYDENLLKAEQSMGVVADLIAQNQLDMKVVDIVFPLNSSYVLISFVAEKRVDFRQLLEDLAAYFKTRIELRQISSREESKIYGGLGPCGRALCCSSFLGEFPPVSIKMAKNQSLSLNSGKMNGVCGRLMCCLSYEDDFYRDSKASYPDLGEEIETKEGRGQVIAIDVIAGTVKVMFEKGGAPLTYGVEEVQLNGKAAAALEHHHHHH | soluble |
| MSITLRTYIFLDALQPQLATFIGKTARGFLPVPGQASLWVEIAPGIAINRVTDAALKATKVQPAVQVVERAYGLLEVHHFDQGEVLAAGSTILDKLEVREEGRLKPQVMTHQIIRAVEAYQTQIINRNSQGMMILPGESLFILETQPAGYAVLAANEAEKAANVHLVNVTPYGAFGRLYLAGSEAEIDAAAEAAEAAIRSVSGVAQESFRDR | not soluble |
| LRSVFVSGFPRGVDSAQLSEYFLAFGPVASVVMDKDKGVFAIVEMGDVGAREAVLSQSQHSLGGHRLRVRPREQKEFQSPASKSPKG | soluble |
| MSLSEIKRKFDAVSGKYDEQRRKFIPCFDDFYGVSVSIASVDTENPDILDLGAGTGLLSAFLMEKYPEATFTLVDMSEKMLEIAKNRFRGNLKVKYIEADYSKYDFEEKYDMVVSALSIHHLEDEDKKELYKRSYSILKESGIFINADLVHGETAFIENLNKTIWRQYVENSGLTEEEIAAGYERSKLDKDIEMNQQLNWLKEAGFRDVSCIYKYYQFAVMFGRKTEGHHHHHH | soluble |
| MLSFVKELNFEINQKKYFIKIYLQPRIKYIKIKIINHQIVCLINHLKLINIAEEFIKNNKLKILKIYENDLKKIKYDEQSLDWIILLGIKFTTIKIKNNNFHCQFNFQKQIIYLYDQNQNLTNTKLLYQKILIYLAEIIFPQIIKNAQNITTLTVKKYVFGFYKSQWGVYNKIKHTIGLSYFLVHYDQDIINYVVIHELAHIKYQHHQKSFWDFVLKYCKNAKIYNNQLKFLEHHHHHH | soluble |
| GMMVPHLTTALTGPLLTLEKRLLDNMPRIEHWFRSQWQEYGAPFYASVDLRNAGFKLAPVDTNLFPGGFNNLNPDFLPLCIQAAMVAVEKICPDARRLLLIPENHTRNTFYLRNVHALTHILRQAGLEVRIGSIAPEITAPTFLETHDGHSILLEPVRRKANRLELDNFDSCAILLNNDLSGGIPDILQGLEQSLIPPLHAGWATRRKSNHFTAYDRVVEEFAPLIDIDPWLLNPYFDTCGGLDFHARLGEEQLAEKVDSLLAKIRRKYAEYGVKQEPFVIVKADAGTYGMGIMTVKSADDVRDLNRKQRNKMSVVKEGLKVSEVILQEGVYTFEHLKDAVAEPVIYMMDHFVVGGFYRVHTSRGADENLNAPGMHFEPLTFETPCSTPDCAGAPDAAPNRFYAYGVVARLALLAATIELQETDPDLLDERT | soluble |
| MRVDVVSRDIIKPSSPTPNHLKKFKLSLLEQLGPTIFGPMVFFYSANNSIKPTEQLQMLKKSLSETLTHFYPLAGRLKGNISIDCNDSGADFLEARVNSPLSNLLLEPSSDSLQQLIPTSVDSIETRTRLLLAQASFFECGSMSIGVCISHKLADATSIGLFMKSWAAISSRGSIKTIGAPVFDTVKIFPPGNFSETSPAPVVEPEIMMNQTLSKRFIFDSSSIQALQAKASSFEVNQPTRVEAVSALIWKSAMKATRTVSGTSKPSILANSVSLRSRVSPPFTKNSIGNLVSYFAAKAEEGINQTKLQTLVSKIRKAKQRFRDIHIPKLVGNPNATEIICSYQKEAGDMIASGDFDFYIFSSACRFGLYETDFGWGKPVWVGFPSVRQKNIVTLLDTKEAGGIEAWVNLNEQEMNLFEQDRELLQFASLNPSVIQPFLHVL | soluble |
| MSLNYDWIKTRATFDEPKAAVIDPFKGTEWTYQDLNIRAENLANYLQEQGVQRGDVVGIFSPNDVALLDLLFASFKLGAVYLPINWRLKTQEIESVIADSDVKLIFYSAKHLSSLEGIADELIHMDIDSKTYDDIVDPTHHRPFTTVSVEGDDLASLMYTSGTTGLPKGVMFSYDSFVNNPINTALTYKVYASYTTIISTPMFHVLGFNDLTIPLLMAGGTLVLQRYFNGESLNDLMAQYQPNFLIQIPTMYYAMLVADNFDLKNFANIEFLIQGGAAPLPTVQKKFVSLGIPIITGYGLTEAPLVSVNTAANNERKPASIGQPVMFTDTRIFDDNFEEVQVGEIGELGVRGNNVTPGYWNKPEETAKAFSGEFFLTGDLAKIDEDGDVYIVDRRKEMIITGGENVLPSEVERVLSEHPLVAQGVVVGYDSPKYGESVSAAVVLTEDDPDFEQKLDAHMREHIAGYKIPRLYLKLTHIPLNSTSKPDKLEIQKYMNDKAQKQDQSKDEGHHHHHH | not soluble |
| MGSDKIHHHHHHMEEVIKLNSVDQYNKMYGLETLHPLVTVVDLSKATVFPTHFTLNYGLYALFLKQTKCGDLRYGRQMYDYQEGTVTSFAPGQVVEVKLNDGVRPMSHGILFHPDLIRGTSLGQEIKHYSFFSYASNEALHLSDDEKKIFQDCLDKVQQELSRPIDKHSKRLIARNIELLLDYCMRFYERQFVTRSKVNKDVLMKFEDLLDVYFQSEQSPNEKLPTVKYFADKVNLSSNYFGDLIKKETGKTAQEYIQGKIINIAKERILASEKTVSEIAYELGFQYPQHFTRIFKKVVGCTPTEYRVIQV | not soluble |
